# Test results reported in patent publication US20060281899A1, “Mutants of biotin binding protein” (priority 2002, published 2006).
# Like-named read-outs stand apart in the source and are kept apart here.
# B1: AVR4/5: Recombinant chicken avidin-related protein 4/5 (AVR4 and AVR5 identical in coding sequence) (protein, UniProt P56734 25-150, looked up)
# Avidin-related protein 4/5: ARKCSLTGKWTNNLGSIMTIRAVNSRGEFTGTYLTAVADNPGNITLSPLLGIQHKRASQPTFGFTVHWNFSESTTVFTGQCFIDRNGKEVLKTMWLLRSSVNDISYDWKATRVGYNNFTRLCTVEE
# Key:
# [1] = IASyS optical biosensor, binding in a 2-iminobiotin cuvette; conditions: for Kd: 2-iminobiotin cuvette, 20.0° C.
# Procedure: The biotin-binding characteristics of the AVR proteins were studied as previously described using the IASyS optical biosensor (Marttila, A. T., Airenne, K. J., Laitinen, O. H., Kulik, T., Bayer, E. A ., Wilchek, M. and Kulomaa, M. S. (1998) FEBS Lett. 441, 313-317; Laitinen, O. H., Airenne, K. J., Marttila, A. T., Kulik, T., Porkka, E., Bayer, E. A., Wilchek, M. and Kulomaa, M. S. (1999) FEBS Lett. 461, 52-8). Affinities were measured for 2-iminobiotin or biotin at 20.0° C. using a stirring power of 100%. Briefly, the protein under study in biotin-free buffer was allowed to bind to the biotin-coated surface of the IASyS cuvette. As a negative control, the protein under study was saturated with excess biotin prior to (and was also maintained under biotin excess upon) addition to the cuvette. Under these conditions, residual binding to the biotin surface of the cuvette could be regarded as unspecific, and was used as a measure of baseline variation. Binding equilibrium in the experimental cuvette was considered to be attained after no binding was detected as compared to negative control.
# The actual dissociation constants (Kd) were calculated for the AVRs according to the kass and kdiss rates measured in a separate assay in different protein concentrations (varying between 10 μM and 100 pM) (Table 4 and FIG. 6). The binding seemed to follow two-order or even more complex kinetics. However, the first 1000 seconds of the binding fitted considerably well to the bi-phasic curve. All measured dissociation rate constants (kdiss) followed the first-order kinetics. Because of the extremely high binding, affinities of the AVRs for biotin could not be determined except for AVR1, AVR2 and AVR7. Binding to 2-iminobiotin was determined only for AVR4/5, and it was similar to that of avidin. The lack of binding for the other AVRs was surprising, since most of them were purified using 2-iminobiotin agarose.
# [2] = Microparticle analysis, BF523-biotin binding of protein-coated particles before and after 95° C.; type: physicochemical
# Procedure: Before the analysis, 3.22 μm microparticles with COOH-group/0.852 nm2 (Bangs laboratories, Fishers, Ind., USA) were covalently coated with biotin-binding proteins. Microparticles (1*108 pcs) were washed twice with H20 by sequential centrifuging (5000 g; 3 min) and aspiration, and resuspended in 200 μl PB buffer (50 mM NaH2PO4-HCl, pH 3.0). A solution of biotin binding protein (50 μl, 1 mg/ml or 3 mg/ml, 50 mM Na-acetate pH 4.0) was added while vortexing. The suspension was incubated for 1 h (500 rpm; 23° C.). Particles were washed with PB and with MES buffer (50 mM, pH 5.5) and suspended in MES buffer (200 μl). […] After the last wash particles were suspended in 100 μl volume and concentration of particles was determined with Multisizer 3 Coulter Counter (Beckman Coulter, Fullerton, Calif., USA). […]
# Microparticles (5*106 pcs) were suspended in 900 μl of assay buffer and aliquoted in […] PCR-tubes (i-v; 180 μl/aliquot). […] The samples were measured with ArcDia TPX PlateReader (ArcDia Ltd.) (Soini, E., Meltola, N. J., Soini, A. E., Soukka, J., Soini, J. T. & Hanninen, P. E. (2000) Biochem. Soc. Trans. 28, 70-74). […]
# The fluorescence emission efficiencies of the BF523-biotin conjugate (200 nM) was determined before and after the incubation (30 min) at 95° C. […]
# [3] = 2-iminobiotin cuvette (as for Kd of this protein)
molecule,measurement,setting,value
B1,kass,[1]; [3],(1.8 ± 0.2) × 10^5 M^−1 s^−1
same,kdiss,[1]; [3],(1.7 ± 0.7) × 10^−3 s^−1
same,Kd,[1]; read-out: Kd calculated directly from the binding curves,91 nM
same,Kd,[1]; read-out: Kd calculated from the equilibrium response data,570 nM
same,maximal binding (Rmax),"[1]; iminobiotin binding, highest concentration (2.2×10−6 M)",ca. 1000 arc seconds
same,original signal after heat treatment of coated particles,"[2]; 30 minutes at 95° C., BF523-biotin added after treatment (iv)",93%
same,capacity of coated particles,"[2]; BF523-biotin binding, no heat treatment (i, iii)",remarkably higher
